Laboratory results reported in patent US5273879, “Amplification method for polynucleotide assays” (Syntex (U.S.A.) Inc.).

Target: Klenow fragment DNA polymerase (UniProt P00582 P00582:324-928)
Test: primer extension, 7 mM MgCl2, 50 mM NaCl, 37 C
Conditions: tags: Pharmacia Lot NM 92818; label: 5'-32P on 17 mer
Description: The 120 mer (1 μg=25 pmoles) was incubated with a ten-fold molar excess (1.4 μg=250 pmoles) of 17 mer including all of the radioactively labeled 17 mer described above at 60° C. for 5 minutes and then slowly cooled over 30 minutes to 37° C. in a volume of 20.2 μl in 1.3×Klenow buffer (1×Klenow buffer is 7 mM Tris-HCl (pH 7.5), 7 mM MgCl_2, 50 mM NaCl). To this cooled reaction mix was added 2 μl of a solution of 0.4 mM dATP, dCTP, dGTP, dTTP (final conc.=32 μM of each dNTPs), 1.8 μl of 0.1M dithiothreitol (final conc.=[…]) and 7.2 units of Klenow polymerase (Pharmacia Lot #NM 92818) in a final concentration of 1×Klenow buffer. This reaction was incubated at 37° C. for 30 minutes. An additional 7.2 units of Klenow polymerase (1 μl volume) was added and the reaction was continued at 37° C. for one hour.
The reaction products were ethanol precipitated by the addition of 375 μl of 0.3M Na Acetate (pH 5.4) and 1.1 ml ethanol (−20° C.), followed by spinning at 15,000 g's for 30 minutes. The precipitated DNA was then resuspended in 25 μl of H_2O and reprecipitated with 1 ml of 100% ethanol (4° C.) and centrifugation as above. The supernatant was removed and the precipitated DNA pellet dried under vacuum.

Sequence of Klenow fragment DNA polymerase (P00582 324-928, one chain of several): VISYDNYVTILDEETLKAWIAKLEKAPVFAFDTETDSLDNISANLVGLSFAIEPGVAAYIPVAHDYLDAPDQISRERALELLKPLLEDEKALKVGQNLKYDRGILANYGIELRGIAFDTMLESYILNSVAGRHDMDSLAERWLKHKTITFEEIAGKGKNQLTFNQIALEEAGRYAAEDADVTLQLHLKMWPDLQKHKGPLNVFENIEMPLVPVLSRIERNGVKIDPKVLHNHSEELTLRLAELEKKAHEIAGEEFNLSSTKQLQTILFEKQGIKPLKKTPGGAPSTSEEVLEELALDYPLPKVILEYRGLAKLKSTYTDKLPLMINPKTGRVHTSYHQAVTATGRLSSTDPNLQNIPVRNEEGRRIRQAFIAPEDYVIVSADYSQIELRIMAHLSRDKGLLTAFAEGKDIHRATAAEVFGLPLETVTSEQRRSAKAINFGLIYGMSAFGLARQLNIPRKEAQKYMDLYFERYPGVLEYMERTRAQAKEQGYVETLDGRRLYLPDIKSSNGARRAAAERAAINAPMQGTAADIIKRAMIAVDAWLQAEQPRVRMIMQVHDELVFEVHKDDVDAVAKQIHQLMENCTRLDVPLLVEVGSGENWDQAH

B1: 120 mer repeating template / 17 mer primer, extended (dsDNA)
DNA 1: CGGGGAATTCTTTAAATATTCCTTTAAACCTACCTTTAAACCTACCTTTAAACCTACCTTTAAACCTACCTTTAAACCTACCTTTAAACCTACCTTTAAATATTCCGAATTCACTGGCCG
DNA 2: CGGCCAGTGAATTCGGA
Question: Does B1 bind?
Answer: binds
